Experimental data: IntAct's records for PubMed 32296183

Legend:
[1] = target: ppip1_human PSTPIP1 (UniProt O43586)
[2] = target: sng3_human SYNGR3 (UniProt O43761)
[3] = target: sft2a_human SFT2D1 (UniProt Q8WV19)
[4] = target: CCDC43 (UniProt Q86WV7)
[5] = target: tri37_human TRIM37 (UniProt O94972)
[6] = target: snx2_human SNX2 (UniProt O60749)
[7] = target: thap1_human THAP1 (UniProt Q9NVV9)
[8] = target: trbp2_human TARBP2 (UniProt Q15633)
[9] = target: coha1_human COL17A1 (UniProt Q9UMD9)
[10] = target: xrcc4_human XRCC4 (UniProt Q13426)
[11] = target: klh12_human KLHL12 (UniProt Q53G59)
[12] = target: IKZF1, Q13422-7
[13] = target: sp4_human SP4 (UniProt Q02446)
[14] = target: fads6_human FADS6 (UniProt Q8N9I5)
[15] = target: SYNGR1, O43759-2
[16] = target: pnma5_human PNMA5 (UniProt Q96PV4)
[17] = target: cntrb_human CNTROB (UniProt Q8N137)
[18] = target: flowr_human CACFD1 (UniProt Q9UGQ2)
Sequence of flowr_human CACFD1 (Q9UGQ2 whole entry): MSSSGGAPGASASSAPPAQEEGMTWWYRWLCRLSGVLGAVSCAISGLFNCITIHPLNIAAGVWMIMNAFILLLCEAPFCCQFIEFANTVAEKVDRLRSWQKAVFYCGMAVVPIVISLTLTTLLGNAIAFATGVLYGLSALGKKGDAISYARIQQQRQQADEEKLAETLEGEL

[19] = target: pick1_human PICK1 (UniProt Q9NRD5)
Sequence of pick1_human PICK1 (Q9NRD5 whole entry): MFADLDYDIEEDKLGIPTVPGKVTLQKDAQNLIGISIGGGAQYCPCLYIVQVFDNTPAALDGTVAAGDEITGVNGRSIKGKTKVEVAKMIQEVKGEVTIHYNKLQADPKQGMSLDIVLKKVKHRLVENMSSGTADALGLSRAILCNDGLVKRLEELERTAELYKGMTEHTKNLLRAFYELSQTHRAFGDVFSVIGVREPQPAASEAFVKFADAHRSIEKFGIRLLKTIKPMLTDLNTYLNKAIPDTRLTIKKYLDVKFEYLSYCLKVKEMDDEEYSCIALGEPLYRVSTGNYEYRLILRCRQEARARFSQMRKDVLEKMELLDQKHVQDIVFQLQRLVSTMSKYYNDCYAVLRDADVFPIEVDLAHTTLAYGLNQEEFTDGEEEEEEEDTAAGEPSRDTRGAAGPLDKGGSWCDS

[20] = target: msd4_human MSANTD4 (UniProt Q8NCY6)
[21] = target: TMEM239, Q8WW34-2
Sequence of TMEM239, Q8WW34-2 (Q8WW34 44-195): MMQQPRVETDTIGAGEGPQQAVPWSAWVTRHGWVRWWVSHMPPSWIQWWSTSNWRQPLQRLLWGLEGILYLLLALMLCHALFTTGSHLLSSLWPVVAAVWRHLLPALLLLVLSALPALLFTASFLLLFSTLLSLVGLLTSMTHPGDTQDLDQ

[22] = target: kank2_human KANK2 (UniProt Q63ZY3)
[23] = target: syph_human SYP (UniProt P08247)
[24] = target: CCDC14, Q49A88-3
[25] = target: zn639_human ZNF639 (UniProt Q9UID6)
Sequence of zn639_human ZNF639 (Q9UID6 whole entry): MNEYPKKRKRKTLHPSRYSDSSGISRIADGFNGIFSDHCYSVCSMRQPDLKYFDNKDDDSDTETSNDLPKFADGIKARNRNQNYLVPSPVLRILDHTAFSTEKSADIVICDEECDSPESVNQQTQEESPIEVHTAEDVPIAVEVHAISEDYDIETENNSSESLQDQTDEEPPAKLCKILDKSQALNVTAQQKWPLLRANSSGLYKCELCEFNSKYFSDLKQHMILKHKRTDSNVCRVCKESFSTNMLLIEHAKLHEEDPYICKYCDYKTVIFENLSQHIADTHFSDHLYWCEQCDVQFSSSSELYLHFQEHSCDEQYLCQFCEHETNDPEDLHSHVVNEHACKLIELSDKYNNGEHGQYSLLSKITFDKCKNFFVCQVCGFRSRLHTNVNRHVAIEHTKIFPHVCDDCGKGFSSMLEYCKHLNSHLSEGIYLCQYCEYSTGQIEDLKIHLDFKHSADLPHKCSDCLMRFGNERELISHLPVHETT

[26] = target: tnip1_human TNIP1 (UniProt Q15025)
[27] = target: zbt14_human ZBTB14 (UniProt O43829)
[28] = target: crcm_human MCC (UniProt P23508)
[29] = target: tbcd1_human TBC1D1 (UniProt Q86TI0)
Sequence of tbcd1_human TBC1D1 (Q86TI0 whole entry): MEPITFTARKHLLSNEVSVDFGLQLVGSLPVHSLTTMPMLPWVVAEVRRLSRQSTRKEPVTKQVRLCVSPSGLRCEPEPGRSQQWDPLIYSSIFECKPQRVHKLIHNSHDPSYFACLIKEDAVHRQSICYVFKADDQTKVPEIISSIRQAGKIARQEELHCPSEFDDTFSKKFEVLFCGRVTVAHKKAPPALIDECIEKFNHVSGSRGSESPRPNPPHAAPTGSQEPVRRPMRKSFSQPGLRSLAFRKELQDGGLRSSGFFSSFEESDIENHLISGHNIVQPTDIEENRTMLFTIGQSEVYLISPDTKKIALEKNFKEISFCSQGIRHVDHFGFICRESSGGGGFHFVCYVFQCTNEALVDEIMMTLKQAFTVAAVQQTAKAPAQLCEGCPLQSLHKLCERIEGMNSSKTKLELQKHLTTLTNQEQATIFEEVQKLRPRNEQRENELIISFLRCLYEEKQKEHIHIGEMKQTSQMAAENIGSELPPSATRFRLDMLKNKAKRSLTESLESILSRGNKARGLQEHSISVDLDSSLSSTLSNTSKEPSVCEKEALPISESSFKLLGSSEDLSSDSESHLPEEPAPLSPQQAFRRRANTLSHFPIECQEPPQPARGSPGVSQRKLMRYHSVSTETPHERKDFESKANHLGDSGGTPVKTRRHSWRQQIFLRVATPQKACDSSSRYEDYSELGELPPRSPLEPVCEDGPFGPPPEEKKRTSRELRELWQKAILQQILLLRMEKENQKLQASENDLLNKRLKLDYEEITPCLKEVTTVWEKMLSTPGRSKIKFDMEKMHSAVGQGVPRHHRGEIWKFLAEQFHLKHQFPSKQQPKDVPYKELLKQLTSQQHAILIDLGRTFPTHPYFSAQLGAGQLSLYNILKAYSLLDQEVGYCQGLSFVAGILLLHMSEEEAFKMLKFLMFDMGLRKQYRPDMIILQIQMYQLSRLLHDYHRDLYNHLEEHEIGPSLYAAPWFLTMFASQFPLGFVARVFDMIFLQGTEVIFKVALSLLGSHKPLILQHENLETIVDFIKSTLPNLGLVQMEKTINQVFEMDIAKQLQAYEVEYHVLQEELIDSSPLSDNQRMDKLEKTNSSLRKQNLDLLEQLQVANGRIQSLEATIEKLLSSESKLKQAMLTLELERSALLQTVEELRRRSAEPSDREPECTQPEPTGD

[30] = target: mgst2_human MGST2 (UniProt Q99735)
[31] = target: car10_human CARD10 (UniProt Q9BWT7)
[32] = target: rprm_human RPRM (UniProt Q9NS64)
[33] = target: CAMK2B, Q13554-3

Sequence of tri37_human TRIM37 (O94972 whole entry): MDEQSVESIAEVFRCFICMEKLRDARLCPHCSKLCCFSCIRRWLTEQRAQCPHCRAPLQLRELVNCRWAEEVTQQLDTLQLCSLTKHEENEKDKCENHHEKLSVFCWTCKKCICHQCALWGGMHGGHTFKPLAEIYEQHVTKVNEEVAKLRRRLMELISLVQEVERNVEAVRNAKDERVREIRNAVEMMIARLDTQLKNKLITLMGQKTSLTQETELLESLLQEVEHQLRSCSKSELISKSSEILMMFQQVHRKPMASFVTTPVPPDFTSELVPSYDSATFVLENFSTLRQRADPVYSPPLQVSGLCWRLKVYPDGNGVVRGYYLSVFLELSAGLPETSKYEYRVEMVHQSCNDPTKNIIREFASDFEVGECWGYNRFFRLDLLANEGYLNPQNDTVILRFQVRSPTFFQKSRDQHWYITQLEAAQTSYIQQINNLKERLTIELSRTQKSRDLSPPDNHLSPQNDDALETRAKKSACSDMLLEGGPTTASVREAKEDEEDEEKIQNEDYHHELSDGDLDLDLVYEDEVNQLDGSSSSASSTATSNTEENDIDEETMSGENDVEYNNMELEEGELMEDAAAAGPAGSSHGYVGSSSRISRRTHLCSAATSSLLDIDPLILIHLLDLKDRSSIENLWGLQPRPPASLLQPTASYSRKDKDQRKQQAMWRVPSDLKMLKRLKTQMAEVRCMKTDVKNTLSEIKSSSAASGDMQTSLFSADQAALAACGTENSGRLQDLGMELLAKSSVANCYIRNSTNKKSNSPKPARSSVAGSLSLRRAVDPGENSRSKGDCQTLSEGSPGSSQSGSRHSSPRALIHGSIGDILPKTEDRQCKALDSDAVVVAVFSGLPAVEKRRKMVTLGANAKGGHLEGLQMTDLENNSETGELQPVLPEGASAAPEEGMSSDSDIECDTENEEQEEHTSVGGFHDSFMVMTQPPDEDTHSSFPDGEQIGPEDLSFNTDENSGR
Sequence of snx2_human SNX2 (O60749 whole entry): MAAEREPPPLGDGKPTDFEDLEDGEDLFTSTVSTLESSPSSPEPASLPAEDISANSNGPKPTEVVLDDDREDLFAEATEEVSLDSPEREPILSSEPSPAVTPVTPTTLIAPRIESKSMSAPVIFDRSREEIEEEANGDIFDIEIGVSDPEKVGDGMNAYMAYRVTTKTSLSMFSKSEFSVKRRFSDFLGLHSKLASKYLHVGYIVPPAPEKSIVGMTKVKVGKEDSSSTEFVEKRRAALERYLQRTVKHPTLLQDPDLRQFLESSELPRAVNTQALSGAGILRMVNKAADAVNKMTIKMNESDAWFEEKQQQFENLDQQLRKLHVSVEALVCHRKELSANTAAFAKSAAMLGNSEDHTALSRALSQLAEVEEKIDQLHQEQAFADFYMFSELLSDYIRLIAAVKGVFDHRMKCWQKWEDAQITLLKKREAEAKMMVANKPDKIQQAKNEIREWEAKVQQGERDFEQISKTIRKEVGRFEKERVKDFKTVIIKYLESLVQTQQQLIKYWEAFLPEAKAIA

Substance | effect of a mutation on the interaction [1] | effect of a mutation on the interaction [2] | effect of a mutation on the interaction [3] | effect of a mutation on the interaction [4] | effect of a mutation on the interaction [5] | effect of a mutation on the interaction [6] | effect of a mutation on the interaction [7] | effect of a mutation on the interaction [8] | effect of a mutation on the interaction [9] | effect of a mutation on the interaction [10] | effect of a mutation on the interaction [11] | effect of a mutation on the interaction [12] | effect of a mutation on the interaction [13] | effect of a mutation on the interaction [14] | effect of a mutation on the interaction [15] | effect of a mutation on the interaction [16] | effect of a mutation on the interaction [17] | effect of a mutation on the interaction [18] | effect of a mutation on the interaction [19] | effect of a mutation on the interaction [20] | further results
Bifunctional polynucleotide phosphatase/kinase (Homo sapiens), Q96T60 P20S | with no effect | with no effect | with no effect | with no effect | with no effect | with no effect | with no effect | with no effect | with no effect | with no effect | with no effect | with no effect | with no effect | with no effect | with no effect | with no effect | with no effect | with no effect | with no effect | with no effect | effect of a mutation on the interaction [21]: with no effect; effect of a mutation on the interaction [22]: with no effect; effect of a mutation on the interaction [23]: with no effect; effect of a mutation on the interaction [24]: with no effect; effect of a mutation on the interaction [25]: with no effect; effect of a mutation on the interaction [26]: with no effect; effect of a mutation on the interaction [27]: with no effect; effect of a mutation on the interaction [28]: with no effect; effect of a mutation on the interaction [29]: with no effect; effect of a mutation on the interaction [30]: with no effect; effect of a mutation on the interaction [31]: with no effect; effect of a mutation on the interaction [32]: with no effect; effect of a mutation on the interaction [33]: with no effect
Bifunctional polynucleotide phosphatase/kinase (Homo sapiens), Q96T60 E326K | with no effect | with no effect | disrupting interaction strength | disrupting interaction strength | with no effect | with no effect | disrupting interaction strength | disrupting interaction strength | disrupting interaction strength | with no effect | disrupting interaction strength | with no effect | with no effect | with no effect | disrupting interaction strength | disrupting interaction strength | with no effect | disrupting interaction strength | disrupting interaction strength | disrupting interaction strength | effect of a mutation on the interaction [21]: disrupting interaction strength; effect of a mutation on the interaction [22]: disrupting interaction strength; effect of a mutation on the interaction [23]: with no effect; effect of a mutation on the interaction [24]: disrupting interaction strength; effect of a mutation on the interaction [25]: with no effect; effect of a mutation on the interaction [26]: with no effect; effect of a mutation on the interaction [27]: with no effect; effect of a mutation on the interaction [28]: disrupting interaction strength; effect of a mutation on the interaction [29]: with no effect; effect of a mutation on the interaction [30]: with no effect; effect of a mutation on the interaction [31]: disrupting interaction strength; effect of a mutation on the interaction [32]: disrupting interaction strength; effect of a mutation on the interaction [33]: disrupting interaction strength
